From PMC2175353
Where two headings read alike, the source gives them in different places.

B1: MBS3wt (Myb site 3, lysozyme -2.7 kb enhancer) (dsDNA)
DNA 1: GGCTGGGAATATTTCTGTTTGACCACCATGGAG
DNA 2: CTCCATGGTGGTCAAACAGAAATATTCCCAGCC
B2: mimA (mim-1 promoter Myb site A) (dsDNA)
DNA 1: GCTCTAAAAAACCGTTATAATGTACAGATATCTT
DNA 2: AAGATATCTGTACATTATAACGGTTTTTTAGAGC

Assays:
[1] = target: T1, v-Myb AMV (bacterial, pVM2028) (avian myeloblastosis virus (AMV), UniProt P01104 1-382); assay: EMSA
[2] = target: T1, v-Myb AMV (bacterial, pVM2028); assay: EMSA; remark: listed apart in the source

T1 sequence (P01104 whole entry): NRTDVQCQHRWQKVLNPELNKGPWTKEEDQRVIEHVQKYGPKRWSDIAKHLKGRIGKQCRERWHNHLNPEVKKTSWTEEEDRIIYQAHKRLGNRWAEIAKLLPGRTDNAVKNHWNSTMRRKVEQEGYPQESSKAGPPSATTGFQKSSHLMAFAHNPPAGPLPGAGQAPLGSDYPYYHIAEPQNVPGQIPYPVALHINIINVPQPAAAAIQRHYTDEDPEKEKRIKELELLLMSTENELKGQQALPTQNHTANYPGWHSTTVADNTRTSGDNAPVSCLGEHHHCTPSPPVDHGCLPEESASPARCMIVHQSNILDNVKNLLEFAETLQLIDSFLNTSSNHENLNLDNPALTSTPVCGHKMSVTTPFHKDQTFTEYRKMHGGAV

| Binder | binding result [1] | binding result [2] |
| --- | --- | --- |
| B1 | no binding |  |
| B2 |  | binds |
